B1: CA120 (antibody, V domains shown)
VH: EVQLVESGGGLVQPGGSLRLSCVASGFTFSTYSMNWVRQAPGKGLEWVSYISSSSSTIYYADSVKGRFTISRDNAKNSLYLQMNSLRAEDTAVYYCARDPGWLSWFDPWGQGTLVTVSS
VL: RSLPAPWSLSPGERATLSCRASQSVSNSYLAWYQQKPGQAPRLLIYGASSRATGIPDRFSGSGSGTDFTLTISRLEPEDFAVYYCQQYGGSPRTFGQGTKVEIK
B2: CA123 (antibody, V domains shown)
VH: EVQLVESGGGLVQPGGSLRLSCAASGFTFSSYWMHWVRQAPGKGLVWVSRINSDGSSTSYADSVKGRFTISRDNAKNTLYLQMNSLRAEDTAVYYCARDQGSTSCYYCYYGMDVWGQGTTVTVSS
VL: not shown
B3: CA124 (antibody, V domains shown)
VH: QVQLVESGGGLVKPGGSLRLSCAASGFTFSDYYMSWIRQAPGKGLEWVSYISSSGSTIYYADSVKGRFTISRDNAKNSLYLQMNSLRAEDTAVYYCASGFSSWGADDYWGQGTLVTVSS
VL: HPDDPVSSSLSASVGDRVTITCRASQGISNYLAWFQQKPGKAPKSLIYAASSLQSGVPSKFSGSGSGTDFTLTISSLQPEDFATYYCQQYNSYPLTFGQGTKLEIK
B4: CA125 (antibody, V domains shown)
VH: EVQLVESGGGLVKPGGSLRLSCAASGFTFSSYSMNWVRQAPGKGLEWVSSISSSSSYIYYADSVKGRFTISRDNAKNSLYLQMNSLRAEDTAVYYCARVVDTAMGDAFDIWGQGTMVTVSS
VL: not shown
B5: CA128 (antibody, V domains shown)
VH: QVQLVESGGGLVKPGGSLRLSCAASGFTFSDYYMSWIRQAPGKGLEWVSYISSSGSTIYYADSVKGRFTISRDNAKNSLYLQMNSLRAEDTAVYYCARDSGSFVGVFDYWGQGTLVTVSS
VL: not shown
B6: CA131 (antibody, V domains shown)
VH: QLQLQESGSGLVKPSQTLSLTCAVSGGSISSGGYSWSWIRQPPGKGLEWIGYIYHSGSTYYNPSLKSRVTISVDRSKNQFSLKLSSVTAADTAVYYCATGGGHKELGGWGQGTLVTVSS
VL: not shown
B7: CA132 (antibody, V domains shown)
VH: EVQLVESGGGLVQPGGSLRLSCVASGFTFSTYSMNWVRQAPGKGLEWVSYISSSSSTIYYADSVKGRFTISRDNAKNSLYLQMNSLRAEDTAVYYCARDPGWLSWFDPWGQGTLVTVSS
VL: EIVLTQSPPGERATLSCRASQSVSNSYLAWYQQKPGQAPRLLIYGASSRATGIPDRFSGSGSGTDFTLTISRLEPEDFAVYYCQQYGGSPRTFGQGTKVEIK
B8: CA133 (antibody, V domains shown)
VH: EVQLVESGGGLVQPGGSLRLSCVASGFTFSSYSMNWVRQAPGKGLEWVSYISSSSSTIYYADSVKGRFTISRDNAKNSLYLQMNSLRAEDTAVYYCARDPGWLSWFDPWGQGTLVTVSS
VL: not shown
B9: CA134 (antibody, V domains shown)
VH: EVQLVESGGGLVKPGGSLRLSCAASGFTFSSYSMNWVRQAPGKGLEWVSSISSSSSYIYYADSVKGRFTISRDNAKNSLYLQMNSLRAEDTAVYYCARVFGEQLVSFFDYWGQGTLVTVSS
VL: EIVMTQSPPGERATLSCRASQSVSSNLAWYQQKPGQAPRLLIYGASTRATGIPARFSGSGSGTEFTLTISSLQSEDFAVYYCQQYNNWPPWTFGQGTKVEIK
B10: CA135 (antibody, V domains shown)
VH: EVQLVESGGGLVQPGGSLRLSCVASGFTFSTYSMNWVRQAPGKGLEWVSYISSSSSTIYYADSVKGRFTISRDNAKNSLYLQMNSLRAEDTAVYYCARDPGWLSWFDPWGQGTLVTVSS
VL: not shown
B11: CA137 (antibody, V domains shown)
VH: EVQLVESGGGLVQPGGSLRLSCVASGFTFSTYSMNWVRQAPGKGLEWVSYISSSSSTIYYADSVKGRFTISRDNAKNSLYLQMNSLRAEDTAVYYCARDPGWLSWFDPWGQGTLVTVSS
VL: not shown
B12: CA139 (antibody, V domains shown)
VH: not shown
VL: DIQMTQSPSSLSASVGDRVTITCRASQGISNYLAWFQQKPGKAPKSLIYAASSLQSGVPSKFSGSGSGTDFTLTISSLQPEDFATYYCQQYNSYPLTFGGGTKVEIK
B13: CA141 (antibody, V domains shown)
VH: EVQLVESGGGLVKPGGSLRLSCAASGFTFSSYSMNWVRQAPGKGLEWVSSISSSSSYIYYADSVKGRFTISRDNAKNSLYLQMNSLRAEDTAVYYCARASENGDDAFDIWGQGTMVTVSS
VL: EIVLTQSPATLSLSPGERATLSCRASQSVSSYLAWYQQKPGQAPRLLIYDASNRATGIPARFSGSGSGTDFTLTISSLEPEDFAVYYCQQRSNWPPYTFGQGTKLEIK
B14: CA143 (antibody, V domains shown)
VH: EVQLVESGGGLVKPGGSLRLSCAASGFTFSSYSMNWVRQAPGKGLEWVSSISSSSSYIYYADSVKGRFTISRDNAKNSLYLQMNSLRAEDTAVYYCARDSLPAGDYFDYWGQGTLVTVSS
VL: DIQLTQSPSFLSASVGDRVTITCRASQGISSYLAWYQQKPGKAPKLLIYAASTLQSGVPSRFSGSGSGTEFTLTISSLQPEDFATYYCQQLNSYPQTTFGGGTKVEIK
B15: CA144 (antibody, V domains shown)
VH: EVQLVESGGGLVKPGGSLRLSCAASGFTFSSYSMNWVRQAPGKGLEWVSSISSSSSYIYYADSVKGRFTISRDNAKNSLYLQMNSLRAEDTAVYYCARDRVEMAFHFDYWGQGTLVTVSS
VL: not shown
B16: CA145 (antibody, V domains shown)
VH: QVQLVESGGGLVKPGGSLRLSCAASGFTFSDYYMSWIRQAPGKGLEWVSYISSSGSTIYYADSVKGRFTISRDNAKNSLYLQMNSLRAEDTAVYYCARDVLELRWWFDPWGQGTLVTVSS
VL: not shown
B17: CA146 (antibody, V domains shown)
VH: QVQLVESGGGVVQPGRSLRLSCAASGFTFSSYGMHWVRQAPGKGLEWVAVISYDGSNKYYADSVKGRFTISRDNSKNTLYLQMNSLRAEDTAVYYCAKDRYSIVGATSNGMDVWGQGTTVTVSS
VL: not shown
B18: CA148 (antibody, V domains shown)
VH: QVQLVQSGAEVKKPGASVKVSCKASGYTFTSYGISWVRQAPGQGLEWMGWISAYNGNTNYAQKLQGRVTMTTDTSTSTAYMELRSLRSDDTAVYYCARTPGDEYYYYYYMDVWGKGTTVTVSS
VL: EIVLTQSPATLSLSPGERATLSCRASQSVSSYLAWYQQKPGQAPRLLIYDASNRATGIPARFSGSGSGTDFTLTISSLEPEDFAVYYCQQRSNWPRTFGQGTKLEIK
B19: CA149 (antibody, V domains shown)
VH: EVQLVESGGGLVKPGGSLRLSCAASGFTFSSYSMNWVRQAPGKGLEWVSSISSSSSYIYYADSVKGRFTISRDNAKNSLYLQMNSLRAEDTAVYYCARCAAGFVPDAFDIWGQGTMVTVSS
VL: not shown
B20: CA150 (antibody, V domains shown)
VH: QVQLVQSGAEVKKPGSSVKVSCKASGGTFSSYAISWVRQAPGQGLEWMGGIIPIFGTANYAQKFQGRVTITADESTSTAYMELSSLRSEDTAVYYCASFPNCSSTSCYYYYYMDVWGKGTTVTVSS
VL: QSALTQPASVSGSPGQSITISCTGTSSDVGGYNYVSWYQQHPGKAPKLMIYDVSNRPSGVSNRFSGSKSGNTASLTISGLQAEDEADYYCSSYTSSSTRDVVFGGGTKLTVL
B21: CA151 (antibody, V domains shown)
VH: RCSCRSRAPGLVKPSETLSLTCTVSGGSVSSGSYYWSWIRQPPGKGLEWIGYIYYSGSTNYNPSLKSRVTISVDTSKNQFSLKLSSVTAADTAVYYCASFTRMSPYAFDIWGQGTMVTVSS
VL: not shown
B22: CA153 (antibody, V domains shown)
VH: EVQLVESGGGLVKPGGSLRLSCAASGFTFSSYSMNWVRQAPGKGLEWVSSISSSSSYIYYADSVKGRFTISRDNAKNSLYLQMNSLRAEDTAVYYCARLTYYYYMDVWGKGTTVTVSS
VL: not shown
B23: CA154 (antibody, V domains shown)
VH: not shown
VL: AIRMTQSPSSFSASTGDRVTITCRASQGISSYLAWYQQKPGKAPKLLIYAASTLQSGVPSRFSGSGSGTDFTLTISCLQSEDFATYYCQQYYSYALTFGGGTKVEIK
B24: CA155 (antibody, V domains shown)
VH: QVQLVESGGGLVKPGGSLRLSCAASGFTFSDYYMSWIRQAPGKGLEWVSYISSSSSYTNYADSVKGRFTISRDNAKNSLYLQMNSLRAEDTAVYYCARGGIYYYYYMDVWGKGTTVTVSS
VL: not shown
B25: CA156 (antibody, V domains shown)
VH: EVQLVESGGGLVKPGGSLRLSCAASGFTFSSYSMNWVRQAPGKGLEWVSSISSSSSYIYYADSVKGRFTISRDNAKNSLYLQMNSLRAEDTAVYYCARDFSGDFWSGYDYWGQGTLVTVSS
VL: not shown
B26: CA157 (antibody, V domains shown)
VH: EVQLVESGGGLVQPGGSLRLSCAASGFTFSSYEMNWVRQAPGKGLEWVSYISSSGSTIYYADSVKGRFTISRDNAKNSLYLQMNSLRAEDTAVYYCARGYCSSTSCPFDYWGQGTLVTVSS
VL: not shown
B27: CA158 (antibody, V domains shown)
VH: EVQLVESGGGLVKPGGSLRLSCAASGFTFSSYSMNWVRQAPGKGLEWVSSISSSSSYIYYADSVKGRFTISRDNAKNSLYLQMNSLRAEDTAVYYCARMYQLAAIDYWGQGTLVTVSS
VL: not shown
B28: CA159 (antibody, V domains shown)
VH: QVQLVQSGAEVKKPGSSVKVSCKASGGTFSSYAISWVRQAPGQGLEWMGGIIPIFGTANYAQKFQGRVTITADESTSTAYMELSSLRSEDTAVYYCARASYYYYYMDVWGKGTTVTVSS
VL: not shown
B29: CA162 (antibody, V domains shown)
VH: QVQLVESGGGLVKPGGSLRLSCAASGFTFSDYYMSWIRQAPGKGLEWVSYISSSSSYTNYADSVKGRFTISRDNAKNSLYLQMNSLRAEDTAVYYCARGRTMFKNYYDSSGYYGYFDYWGQGTLVTVSS
VL: DIQMTQSPSSVSASVGDRVTITCRASQGISSWLAWYQQKPGKAPKLLIYAASSLQSGVPSRFSGSGSGTDFTLTISSLQPEDFATYYCQQANSPLTFGGGTKVEIK

The binders below were run against soluble HLA-E-VL9, HLA-E*01:03 heavy chain refolded with β2-microglobulin and synthetic VL9 peptide (Homo sapiens, HLA-E*01:03, strain).
B1: binds. In the case of B2, the Kd is reported as 3.8 µM. B3: binds. B4: binds. B5: binds. B6: binds. B7: binds. B8: binds. B9: binds. B10: binds. B11: binds. B12: binds. B13: binds. B14: binds. B15: binds. B16: binds. B17: binds. B18: binds. B19: binds. B20: binds. B21: binds. B22: binds. B23: binds. B24: binds. B25: binds. B26: binds. B27: binds. B28: binds. B29: binds.
